B1: RE1-silencing transcription factor (Homo sapiens), Q13127 (parent)
chain: MATQVMGQSSGGGGLFTSSGNIGMALPNDMYDLHDLSKAELAAPQLIMLANVALTGEVNGSCCDYLVGEERQMAELMPVGDNNFSDSEEGEGLEESADIKGEPHGLENMELRSLELSVVEPQPVFEASGAPDIYSSNKDLPPETPGAEDKGKSSKTKPFRCKPCQYEAESEEQFVHHIRVHSAKKFFVEESAEKQAKARESGSSTAEEGDFSKGPIRCDRCGYNTNRYDHYTAHLKHHTRAGDNERVYKCIICTYTTVSEYHWRKHLRNHFPRKVYTCGKCNYFSDRKNNYVQHVRTHTGERPYKCELCPYSSSQKTHLTRHMRTHSGEKPFKCDQCSYVASNQHEVTRHARQVHNGPKPLNCPHCDYKTADRSNFKKHVELHVNPRQFNCPVCDYAASKKCNLQYHFKSKHPTCPNKTMDVSKVKLKKTKKREADLPDNITNEKTEIEQTKIKGDVAGKKNEKSVKAEKRDVSKEKKPSNNVSVIQVTTRTRKSVTEVKEMDVHTGSNSEKFSKTKKSKRKLEVDSHSLHGPVNDEESSTKKKKKVESKSKNNSQEVPKGDSKVEENKKQNTCMKKSTKKKTLKNKSSKKSSKPPQKEPVEKGSAQMDPPQMGPAPTEAVQKGPVQVEPPPPMEHAQMEGAQIRPAPDEPVQMEVVQEGPAQKELLPPVEPAQMVGAQIVLAHMELPPPMETAQTEVAQMGPAPMEPAQMEVAQVESAPMQVVQKEPVQMELSPPMEVVQKEPVQIELSPPMEVVQKEPVKIELSPPIEVVQKEPVQMELSPPMGVVQKEPAQREPPPPREPPLHMEPISKKPPLRKDKKEKSNMQSERARKEQVLIEVGLVPVKDSWLLKESVSTEDLSPPSPPLPKENLREEASGDQKLLNTGEGNKEAPLQKVGAEEADESLPGLAANINESTHISSSGQNLNTPEGETLNGKHQTDSIVCEMKMDTDQNTRENLTGINSTVEEPVSPMLPPSAVEEREAVSKTALASPPATMAANESQEIDEDEGIHSHEGSDLSDNMSEGSDDSGLHGARPVPQESSRKNAKEALAVKAAKGDFVCIFCDRSFRKGKDYSKHLNRHLVNVYYLEEAAQGQE

Variants of: B1
Conditions: with fbw1a_human BTRC

Variant | effect of a mutation on the interaction
S1024A | disrupting interaction strength
S1027A | disrupting interaction strength
S1030A | disrupting interaction strength

From IntAct's records for PubMed 18354483
